Assay results published in US20140348747A1 (published 2014).
Changes are numbered by the printed parent chain.

T1: NLpoly 11S (12-A51T)
T1 chain: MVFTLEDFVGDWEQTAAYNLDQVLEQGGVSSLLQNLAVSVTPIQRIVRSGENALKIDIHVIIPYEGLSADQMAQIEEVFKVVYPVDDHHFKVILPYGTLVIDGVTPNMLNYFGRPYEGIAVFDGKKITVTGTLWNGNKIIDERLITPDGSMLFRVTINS

T2: wild-type non-luminescent polypeptide (WT fragment of residues 1-156 of NanoLuc)
T2 chain: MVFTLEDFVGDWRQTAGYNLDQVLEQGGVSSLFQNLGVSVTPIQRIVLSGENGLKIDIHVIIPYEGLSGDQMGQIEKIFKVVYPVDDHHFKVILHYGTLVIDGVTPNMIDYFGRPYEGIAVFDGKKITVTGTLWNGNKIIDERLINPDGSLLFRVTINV

T3: NLpoly 5A2 (G15A/G35A/G51A/G67A/G71A)
T3 chain: T2 chain with G17A, G37A, G53A, G69A, G73A

B1: NLpep82 (peptide)
peptide: Ac-GWRLFKKISN-NH2
B2: NLpep80 (peptide)
peptide: Ac-VSGWRLFKKISN-NH2
B3: NLpepWT (peptide)
peptide: GVTGWRLCERILA
B4: NLpep86 (peptide)
peptide: Ac-VSGWRLFKKIS-NH2
B5: NLpep81 (peptide)
peptide: Ac-SGWRLFKKISN-NH2
B6: NLpep79 (peptide)
peptide: NVTGYRLFKKISN

Key:
5P+V = experiment: luminescence complementation
5P+VT = experiment: luminescence complementation
5P+VTG = experiment: luminescence complementation
NLpoly 11S (12-A51T) = biological target: T1, NLpoly 11S (12-A51T); experiment: kinetics (koff/kon)
[1] = biological target: T2, wild-type non-luminescent polypeptide …; experiment: luminescence complementation; PBS
[2] = biological target: T2, wild-type non-luminescent polypeptide …; experiment: luminescence complementation; NanoGlo
[3] = biological target: T2, wild-type non-luminescent polypeptide …; experiment: luminescence complementation; average HeLa, HEK293, CHO lysates
[4] = biological target: T3, NLpoly 5A2 (G15A/G35A/G51A/G67A/G71A); experiment: luminescence complementation, one-site specific binding; replicate 1
[5] = biological target: T3, NLpoly 5A2 (G15A/G35A/G51A/G67A/G71A); experiment: luminescence complementation, one-site specific binding; replicate 2
[6] = biological target: T3, NLpoly 5A2 (G15A/G35A/G51A/G67A/G71A); experiment: luminescence complementation, one-site specific binding; replicate 3
[7] = biological target: T2, wild-type non-luminescent polypeptide …; experiment: kinetics (koff/kon)

Binder	Kd (5P+V) [nM]	Kd (5P+VT) [nM]	Kd (5P+VTG) [nM]	Kd (NLpoly 11S (12-A51T)) [µM]	Kd [1] [nM]	Kd [2] [µM]	Kd [3] [µM]	also measured
B1	128	198	272					
B2	10.3	9.6	7.5					
B3				629	1340	20.6	8.35	
B4								Kd [4]: 99.1 nM; Kd [5]: 110 nM; Kd [6]: 93.3 nM
B5	150	218	283					
B6				42	487	2.89	5.13	Kd [7]: 5.58 mM
